System: peptide library, one residue held at a place counted from the S/T acceptor
Test: relative phosphorylation of the sub-library (ratio to the mean residue at this position); higher = residue favoured
How it was run: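 Relative sub-library phosphorylation is a ratio to the mean residue at the same position. Purified recombinant kinases were incubated under kinase-specific conditions with biotinylated degenerate peptide sub-libraries, each fixing one residue at one position around a central Ser/Thr, using 50 μM peptide and 50 μM ATP spiked with γ-32P-ATP for 90 min. Spots captured on streptavidin membranes were phosphorimaged and quantified by densitometry.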

STK32B, construct: Full length, human, sequence (Q9NY57 whole entry, looked up): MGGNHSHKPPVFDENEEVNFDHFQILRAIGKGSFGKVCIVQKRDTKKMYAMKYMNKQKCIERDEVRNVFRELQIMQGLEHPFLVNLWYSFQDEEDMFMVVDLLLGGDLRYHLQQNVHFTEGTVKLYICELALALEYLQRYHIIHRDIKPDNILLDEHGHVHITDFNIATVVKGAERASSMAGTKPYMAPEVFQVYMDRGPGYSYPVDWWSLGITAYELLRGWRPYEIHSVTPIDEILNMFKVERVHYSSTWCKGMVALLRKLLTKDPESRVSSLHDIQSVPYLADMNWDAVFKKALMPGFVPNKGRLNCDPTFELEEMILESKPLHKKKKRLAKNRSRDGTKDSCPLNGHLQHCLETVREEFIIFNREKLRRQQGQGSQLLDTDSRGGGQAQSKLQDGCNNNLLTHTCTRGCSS

STK32B, construct: Full length, human (from UniProt Q9NY57)
relative phosphorylation
Settings | at +1 | at +2 | at +3 | at +4 | at -1 | at -2 | at -3 | at -4 | at -5
A fixed | 0.577 | 0.493 | 0.744 | 0.79 | 0.938 | 0.933 | 0.994 | 1.1 | 1.08
D fixed | 0.363 | 0.882 | 0.608 | 0.539 | 0.556 | 0.56 | 1.54 | 1.15 | 1.08
E fixed | 0.932 | 1.81 | 0.743 | 0.769 | 0.726 | 0.921 | 1.35 | 1.59 | 0.878
F fixed | 2.31 | 0.995 | 1.37 | 0.745 | 0.832 | 1.35 | 0.754 | 0.804 | 0.938
G fixed | 0.389 | 0.269 | 0.43 | 0.849 | 1.26 | 0.739 | 0.909 | 1.24 | 1.19
H fixed | 0.784 | 1.61 | 1.11 | 1.16 | 0.992 | 1.22 | 0.871 | 0.975 | 1.14
I fixed | 1.91 | 0.897 | 1.47 | 1.04 | 0.557 | 0.77 | 0.702 | 0.66 | 0.798
K fixed | 0.75 | 0.796 | 1.1 | 1.84 | 1.32 | 0.656 | 1.05 | 1.1 | 1.35
L fixed | 1.1 | 0.767 | 1.29 | 0.812 | 0.884 | 1.7 | 0.77 | 0.744 | 0.78
M fixed | 2.15 | 0.934 | 1.17 | 0.898 | 1.15 | 1.2 | 0.776 | 0.906 | 0.797
N fixed | 0.545 | 0.704 | 0.659 | 0.828 | 0.878 | 1.02 | 0.941 | 0.983 | 1.03
P fixed | 0.259 | 0.214 | 0.356 | 1.13 | 1.46 | 1.23 | 1.03 | 1.1 | 0.987
Q fixed | 1.01 | 0.86 | 0.826 | 0.864 | 1.03 | 0.88 | 0.753 | 0.88 | 0.88
R fixed | 0.939 | 1.01 | 1.05 | 1.87 | 2.02 | 1.02 | 2.17 | 1.32 | 1.39
V fixed | 1.26 | 0.765 | 1.4 | 0.742 | 0.593 | 0.797 | 0.821 | 0.764 | 0.736
W fixed | 0.713 | 1.39 | 1.41 | 1.14 | 0.634 | 0.755 | 0.65 | 0.784 | 0.844
Y fixed | 1 | 2.61 | 1.24 | 0.989 | 1.16 | 1.25 | 0.915 | 0.903 | 1.11
pThr fixed | 1.12 | 2.27 | 3.42 | 1.86 | 1.03 | 1.74 | 9.83 | 2.88 | 1.67
pTyr fixed | 2.4 | 63.9 | 6.44 | 10.7 | 1.72 | 7.31 | 2.44 | 1.38 | 1.77
